Several values for one entry are separate records, joined by “and”; a condition that tells them apart may be missing. Equal values may be shown once. Read-outs that look alike come from different tables or passages of the source.

Test [1] deals with T1, cynomolgus monkey P-cadherin ECD (cynomolgus monkey).
T1 construct: extracellular domain; also called cyno P-cadherin ECD; Cyno P-cadherin
Briefly: SPR Biacore.

Test [2] has as its target T2, human P-cadherin expressed on the cell surface (human, UniProt P22223 108-829). Put plainly: cell-based or functional assay.
In test [3] the target is T1, cynomolgus monkey P-cadherin ECD. Put plainly: SPR Biacore pH 7.4, average. On the technique in general: In SPR one partner is held on a chip, and binding of the other changes the refractive index at the surface.
For a further test, the target named is T3, P-cadherin ECD1-2-Fc (human, UniProt P22223 108-328).
T3 construct: Signal peptide and pro-peptide of the construct left out (see ECD1-Fc); not shown: cleavable linker; hinge and CH2 and CH3 domains of human IgG1
T3 sequence (P22223 108-328): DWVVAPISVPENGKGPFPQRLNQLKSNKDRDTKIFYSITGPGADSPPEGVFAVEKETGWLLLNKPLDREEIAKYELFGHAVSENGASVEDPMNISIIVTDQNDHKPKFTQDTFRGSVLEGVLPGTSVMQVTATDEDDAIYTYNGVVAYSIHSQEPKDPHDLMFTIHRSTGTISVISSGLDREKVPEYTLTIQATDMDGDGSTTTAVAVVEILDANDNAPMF
Put plainly: protein ELISA. For orientation: ELISA stands for enzyme-linked immunosorbent assay.

The target of a further test is T4, P-cadherin ECD1-Fc (human, UniProt P22223 108-215).
T4 construct: PACE was co-transfected for processing of the propeptide, so both are left out here; not shown: cleavable linker; hinge and CH2 and CH3 domains of human IgG1
T4 sequence (P22223 108-215): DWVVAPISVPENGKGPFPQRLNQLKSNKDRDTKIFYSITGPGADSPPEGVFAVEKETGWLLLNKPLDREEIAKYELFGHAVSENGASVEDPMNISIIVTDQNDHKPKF
Briefly: protein ELISA.

Test [4] concerns the target T2, human P-cadherin expressed on the cell …. Put plainly: cell-based or functional assay. This is another data set of the same source.
Test [5] deals with T1, cynomolgus monkey P-cadherin ECD. Briefly: SPR Biacore pH 7.4.
Test [6] has the same target. Briefly: SPR Biacore, average.
In a further test the target is T5, muP-cad-ECD (murine, UniProt P10287 100-647).
T5 construct: extracellular domain; also called murine P-cadherin; murine P-cadherin ECD
T5 sequence (looked up): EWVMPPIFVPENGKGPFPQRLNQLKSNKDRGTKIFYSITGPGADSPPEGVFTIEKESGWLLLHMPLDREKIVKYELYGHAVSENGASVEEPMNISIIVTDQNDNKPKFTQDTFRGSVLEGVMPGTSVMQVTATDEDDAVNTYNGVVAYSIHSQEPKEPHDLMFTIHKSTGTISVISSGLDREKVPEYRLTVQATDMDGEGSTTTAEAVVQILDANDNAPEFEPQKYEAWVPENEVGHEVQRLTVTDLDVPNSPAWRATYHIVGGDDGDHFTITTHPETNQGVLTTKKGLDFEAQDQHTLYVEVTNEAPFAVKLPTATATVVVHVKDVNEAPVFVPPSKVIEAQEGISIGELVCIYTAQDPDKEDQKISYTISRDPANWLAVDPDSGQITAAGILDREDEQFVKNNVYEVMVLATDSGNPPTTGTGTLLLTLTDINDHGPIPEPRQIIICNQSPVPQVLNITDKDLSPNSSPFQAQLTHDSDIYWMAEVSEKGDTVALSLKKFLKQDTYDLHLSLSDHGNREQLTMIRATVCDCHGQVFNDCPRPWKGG
Put plainly: SPR Biacore.

Test [7] has as its target T1, cynomolgus monkey P-cadherin ECD. Put plainly: SPR Biacore affinity.
For test [8], the target named is T2, human P-cadherin expressed on the cell …. Put plainly: cell-based or functional assay. This is another data set of the same source.
The target of test [9] is T1, cynomolgus monkey P-cadherin ECD. Briefly: SPR Biacore affinity. This is another data set of the same source.

T2 sequence (P22223 108-829): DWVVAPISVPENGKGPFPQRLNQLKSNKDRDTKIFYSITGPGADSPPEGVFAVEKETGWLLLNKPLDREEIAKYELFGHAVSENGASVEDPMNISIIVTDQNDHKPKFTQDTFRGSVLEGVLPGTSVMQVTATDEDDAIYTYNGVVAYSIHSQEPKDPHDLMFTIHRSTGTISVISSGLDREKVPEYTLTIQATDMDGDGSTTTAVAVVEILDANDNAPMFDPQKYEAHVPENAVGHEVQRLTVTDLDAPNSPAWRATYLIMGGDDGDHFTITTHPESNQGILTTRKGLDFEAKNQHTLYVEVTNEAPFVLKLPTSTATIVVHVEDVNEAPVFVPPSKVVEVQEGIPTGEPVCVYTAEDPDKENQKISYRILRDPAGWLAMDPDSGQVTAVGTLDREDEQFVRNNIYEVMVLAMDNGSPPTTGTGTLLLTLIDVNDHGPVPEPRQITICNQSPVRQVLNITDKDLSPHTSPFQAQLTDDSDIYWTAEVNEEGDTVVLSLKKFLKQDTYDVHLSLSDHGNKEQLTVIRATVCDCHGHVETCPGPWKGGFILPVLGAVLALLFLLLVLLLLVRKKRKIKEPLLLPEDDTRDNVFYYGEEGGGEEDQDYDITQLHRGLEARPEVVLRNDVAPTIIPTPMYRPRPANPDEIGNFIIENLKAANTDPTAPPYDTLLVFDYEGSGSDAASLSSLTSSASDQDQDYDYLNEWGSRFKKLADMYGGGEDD

B1: 153 LP-DART (bispecific antibody)
chain 1: QSVLTQPPSVSAAPGQKVTISCSGSSSNIGNNYVSWYQQLPGTAPKLLIYDNNKRPSGIPDRFSGSKSGTSATLGITGLQTGDEADYYCGTWDSSLSGVVFGGGTKLTVLGGGSGGGGEVQLVESGGGLVQPGGSLRLSCAASGFTFSTYAMNWVRQAPGKGLEWVGRIRSKYNNYATYYADSVKGRFTISRDDSKNSLYLQMNSLKTEDTAVYYCVRHGNFGNSYVSWFAYWGQGTLVTVSSGCPPCPAPEAAGAPSVFLFPPKPKDTLMISRTPEVTCVVVDVSHEDPEVKFNWYVDGVEVHNAKTKPREEQYNSTYRVVSVLTVLHQDWLNGKEYKCKVSNKALPAPIEKTISKAKGQPREPQVCTLPPSREEMTKNQVSLWCLVKGFYPSDIAVEWESNGQPENNYKTTPPVLDSDGSFFLYSKLTVDKSRWQQGNVFSCSVMHEALHNHYTQKSLSLSPG
chain 2: QAVVTQEPSLTVSPGGTVTLTCRSSTGAVTTSNYANWVQQKPGQAPRGLIGGTNKRAPWTPARFSGSLLGGKAALTITGAQAEDEADYYCALWYSNLWVFGGGTKLTVLGGGGSGGGGEVQLVQSGAEVKKPGASVKVSCKASGYTFTSYGISWVRQAPGQGLEWMGWISAYNGNTNYAQKLQGRVTMTTDTSTSTAYMELRSLRSDDTAVYYCATIDTANAFGIWGQGTMVTVSSGCPPCPAPEAAGAPSVFLFPPKPKDTLMISRTPEVTCVVVDVSHEDPEVKFNWYVDGVEVHNAKTKPREEQYNSTYRVVSVLTVLHQDWLNGKEYKCKVSNKALPAPIEKTISKAKGQPREPQVYTLPPCREEMTKNQVSLSCAVKGFYPSDIAVEWESNGQPENNYKTTPPVLDSDGSFFLVSKLTVDKSRWQQGNVFSCSVMHEALHNHYTQKSLSLSPG
A word on the Kd: it is a measure of binding affinity in units of concentration. One may read the koff as the rate constant with which the complex falls apart. A word on the kon: it is a measure of how fast the partners come together. The t½ is how long it takes for the measured level to halve. Take B1: the Kd is 0.683 nM and 0.359 nM in test [1]; 0.521 nM in test [3]; 0.683 nM and 0.359 nM in test [5]; 0.521 nM in test [6]; 0.521 nM in [7]. The koff in [1] is 0.0002 s⁻¹ and 0.000209 s⁻¹; in test [5], 0.0002 s⁻¹ and 0.000209 s⁻¹. Besides, the kon is 293000 M⁻¹ s⁻¹ and 581000 M⁻¹ s⁻¹ in test [1]; 293000 M⁻¹ s⁻¹ and 581000 M⁻¹ s⁻¹ in test [5]. Besides, the t½ in [1] was 54.4 min and 52.2 min; in test [5], 54.4 min and 52.2 min. Besides, the “DU145 CTL (LDH) EC50” value in test [2] was 0.0006 nM. Further, in test [2], the “HCT116 CTL (Luc) EC50” value was 0.0004 nM. For the same molecule, the binding result in the test with P-cadherin ECD1-2-Fc, with P-cadherin ECD1-Fc and with muP-cad-ECD was “no binding” in each case. Also, the “CTL assay on CHO P-cadherin cells, cell viability after 48 hours, EC50” value in test [4] came to 0.00041 nM.

B2: 154 LP-DART (bispecific antibody)
chain 1: QSVLTQPPSVSAAPGQKVTISCSGSSSNIGNNYVSWYQQLPGTAPKLLIYDNNKRPSGIPDRFSGSKSGTSATLGITGLQTGDEADYYCGTWDSSLSSYVFGTGTKVTVLGGGSGGGGEVQLVESGGGLVQPGGSLRLSCAASGFTFSTYAMNWVRQAPGKGLEWVGRIRSKYNNYATYYADSVKGRFTISRDDSKNSLYLQMNSLKTEDTAVYYCVRHGNFGNSYVSWFAYWGQGTLVTVSSGCPPCPAPEAAGAPSVFLFPPKPKDTLMISRTPEVTCVVVDVSHEDPEVKFNWYVDGVEVHNAKTKPREEQYNSTYRVVSVLTVLHQDWLNGKEYKCKVSNKALPAPIEKTISKAKGQPREPQVCTLPPSREEMTKNQVSLWCLVKGFYPSDIAVEWESNGQPENNYKTTPPVLDSDGSFFLYSKLTVDKSRWQQGNVFSCSVMHEALHNHYTQKSLSLSPG
chain 2: QAVVTQEPSLTVSPGGTVTLTCRSSTGAVTTSNYANWVQQKPGQAPRGLIGGTNKRAPWTPARFSGSLLGGKAALTITGAQAEDEADYYCALWYSNLWVFGGGTKLTVLGGGGSGGGGEVQLVQSGAEVKKPGASVKVSCKASGYTFTSYGISWVRQAPGQGLEWMGWISAYNGNTNYAQKLQGRVTMTTDTSTSTAYMELRSLRSDDTAVYYCATIDTATAFDIWGQGTMVTVSSGCPPCPAPEAAGAPSVFLFPPKPKDTLMISRTPEVTCVVVDVSHEDPEVKFNWYVDGVEVHNAKTKPREEQYNSTYRVVSVLTVLHQDWLNGKEYKCKVSNKALPAPIEKTISKAKGQPREPQVYTLPPCREEMTKNQVSLSCAVKGFYPSDIAVEWESNGQPENNYKTTPPVLDSDGSFFLVSKLTVDKSRWQQGNVFSCSVMHEALHNHYTQKSLSLSPG
Take B2: in test [1], the Kd is 5.47 nM and 5.53 nM; the koff is 0.00332 s⁻¹ and 0.00343 s⁻¹; the kon is 607000 M⁻¹ s⁻¹ and 620000 M⁻¹ s⁻¹; the t½ was 3.27 min and 3.18 min. Moreover, in test [2], the “DU145 CTL (LDH) EC50” value amounted to 0.0017 nM and the “HCT116 CTL (Luc) EC50” value is 0.0072 nM. The Kd in test [6] came out at 5.5 nM. Further, the Kd in [7] amounted to 5.5 nM.

B3: 153 VF-DART (bispecific antibody)
chain 1: QSVLTQPPSVSAAPGQKVTISCSGSSSNIGNNYVSWYQQLPGTAPKLLIYDNNKRPSGIPDRFSGSKSGTSATLGITGLQTGDEADYYCGTWDSSLSGVVFGGGTKLTVLGGGSGGGGEVQLVESGGGLVQPGGSLRLSCAASGFTFSTYAMNWVRQAPGKGLEWVGRIRSKYNNYATYYADSVKGRFTISRDDSKNSLYLQMNSLKTEDTAVYYCVRHGNFGNSYVSWFAYWGQGTLVTVSS
chain 2: QAVVTQEPSLTVSPGGTVTLTCRSSTGAVTTSNYANWVQQKPGQAPRGLIGGTNKRAPWTPARFSGSLLGGKAALTITGAQAEDEADYYCALWYSNLWVFGGGTKLTVLGGGGSGGGGEVQLVQSGAEVKKPGASVKVSCKASGYTFTSYGISWVRQAPGQGLEWMGWISAYNGNTNYAQKLQGRVTMTTDTSTSTAYMELRSLRSDDTAVYYCATIDTANAFGIWGQGTMVTVSS
modifications: One interchain disulfide between the Linker 2 cysteines; these linkers are left out of the letters.
notes: not shown: The C-terminal cysteine Linker 2 on each chain
For B3, in [8], the “DU145 CTL (LDH) EC50” value amounted to 0.0004 nM and the “HCT116 CTL (Luc) EC50” value is 0.0005 nM. Binding in [3] was characterised by a dissociation constant (Kd) of 0.318 nM. Moreover, the affinity in test [9], expressed as Kd, was 0.31 nM. In test [5], the Kd is 0.332 nM and 0.304 nM; the koff is 0.00024 s⁻¹ and 0.000229 s⁻¹; the kon is 722000 M⁻¹ s⁻¹ and 752000 M⁻¹ s⁻¹; the t½ is 45.4 min and 47.6 min.

Values taken from US20160002357A1 (Pfizer, published 2016).
